Reference: paper PMC3137711 (Molecular imaging and biology : MIB : the official …, 2011)

Columns and labels:
MicroPET imaging = type: in vivo, mouse; details: female, athymic nude, mouse, in vivo, 100 uCi, total radioactivity
[1] = test system: MDA-MB-435 tumor-bearing mice; assay: MicroPET imaging; type: in vivo, mouse; details: co-injection with 300 µg unlabeled c(RGDfk) per mouse

`CC(=O)N(O)CCCCCNC(=O)CCC(=O)N(O)CCCCCNC(=O)CCC(=O)N(O)CCCCCNC(=S)Nc1ccc(NC(=S)NCCOCCOCCOCCOCCC(=O)N[C@@H](CCC(=O)NCCOCCOCCOCCOCCC(=O)NCCCC[C@@H]2NC(=O)[C@@H](Cc3ccccc3)NC(=O)[C@H](CC(=O)O)NC(=O)CNC(=O)[C@H](CCCNC(=N)N)NC2=O)C(=O)NCCOCCOCCOCCOCCC(=O)NCCCC[C@@H]2NC(=O)[C@@H](Cc3ccccc3)NC(=O)[C@H](CC(=O)O)NC(=O)CNC(=O)[C@H](CCCNC(=N)N)NC2=O)cc1` [^89Zr-Df-[FK]2-3PEG4, metal not drawn] showed a tissue to tissue ratio at 0.5 h (MicroPET imaging) of 12.6 ± 1.07, a tissue to tissue ratio at 1 h (MicroPET imaging) of 16.2 ± 3.23 and a tissue to tissue ratio at 2 h (MicroPET imaging) of 18.2 ± 2.52. It also gave a tissue to tissue ratio at 4 h (MicroPET imaging) of 19.7 ± 3.99, a tissue to tissue ratio at 24 h (MicroPET imaging) of 10.8 ± 1.31 and a tissue uptake at 0.5 h (MicroPET imaging; SD) of 3.98 ± 0.5 %ID/g. The tissue uptake at 2 h (MicroPET imaging; SD) was 4.72 ± 0.66 %ID/g, the tissue uptake at 4 h (MicroPET imaging; SD) was 4.47 ± 0.81 %ID/g and the tissue uptake at 24 h (MicroPET imaging; SD) was 2.2 ± 0.26 %ID/g. The “decrease of tumor uptake (PET) by blocking” value [1] was “approximately 90%”.
